From paper PMC7761029, “Identifying Genes Involved in Alkaloid Biosynthesis in Vinca minor through Transcriptomics and Gene Co-Expression Analysis” (Biomolecules, 2020)

Assays:
purified protein = substrate: C[S+](CC[C@H](N)C(=O)O)C[C@H]1O[C@@H](n2cnc3c(N)ncnc32)[C@H](O)[C@@H]1O; test: purified protein; details: methyl donor, fixed 16-hydroxytabersonine, 1-200 µM SAM, 50 mM potassium phosphate pH 7, 25 mM ascorbic acid, 30 °C
[1] = substrate: [H][C@]12N3CC=C[C@@]1(CC)CC(C(=O)OC)=C1Nc4cc(O)ccc4[C@@]12CC3; test: initial velocities of 16-methoxytabersonine formation, LC-MS, Michaelis-Menten non-linear regression; assay type: biochemical, Vinca minor; details: fixed SAM, 0.2-100 µM substrate, 50 mM potassium phosphate pH 7, 25 mM ascorbic acid, 30 °C

B1: Vm16OMT (Vinca minor) (protein)
chain: MDVQSDEFSKAQAHIWSQVLCHIPTATIKCAIELGIPDAIDNHGKAMTLAELTNSLPLINPSKAPFVRRLMRILVKNGFFSEQQITNDHIAYGLTPSSRILLKNEPLNLRGLVLANLDPSHMKSWVALSEWFQNDNEEAKTAFEIAHNGKNFWDYSAEDTEHAEIFNEAMASDSKLVSELLINTEYKLLFEGLTSMVDVGGGTGTIAKAIAKTFPNLNCTVFDLPHVVANLESMGNLEFVAGDMFVKIPPANAIFLKWILHDWNDEDCVKILKACKKAIPEKEKGGKVIVIDTVIGSKINDDESIKAQLSMDMGMMVDFASKERDEKEWASLFKEAGFSNYKIFPKLDFIRSVIEVYP
- Km (purified protein): 46.2 ± 6.1 µM
- kcat (purified protein): 0.039 s⁻¹
- Km [1]: 0.94 ± 0.06 µM
- kcat [1]: 0.0144 s⁻¹
